This data set concerns the molecule itself. The experiment in a line: NMR solution structure; 0.6 mM in 5 mM Tris-Cl pH 7.6, 50 mM NaCl, 0.05% NaN3, 308 K; intermolecular distance restraints from a 3D 13C-filtered/13C-separated NOESY on a mixed 12C/13C sample.

B1: carboxy-terminal domain (CTD) fragment of λ Ea22 (102–182) (domain or fragment, bacteriophage λ)
chain: SNEVREDGNQFLVVRHPGKTPVIKHCTGDLEEFLRQLIEQDPLVTIDIITHRYYGVGGQWVQDAGEYLHMMSDAGIRIKGEIETAV
notes: Ea22 of bacteriophage lambda, carboxy-terminal domain, residues 102-182 of the 182-residue protein; gene synthesized by ATUM, in plasmid pD441NH; Uniformly 13C,15N (or 15N) labelled for NMR; a mixed 12C/13C dimer was made by mixing 12C/14N and 13C/15N proteins 1:1 in 6 M urea and diluting rapidly; Dimer printed as 21.4 kDa; also called λ Ea22 CTD; Ea22 CTD; not shown: 6xHis, N-terminal, kept
As for B1, the “stoichiometry N” value came out at 2.

The values above are taken from paper PMC10834534, “The NMR structure of the Ea22 lysogenic developmental protein from lambda bacteriophage” (Scientific Reports, 2024).
